In US20170355770A1 (ASKGENE PHARMA, published 2017):
Positions count from the first letter of the chain named.

T1: human PDL2 (human, UniProt Q9BQ51 20-219, limits assumed)
T1 construct: Bought protein
T1 sequence (looked up): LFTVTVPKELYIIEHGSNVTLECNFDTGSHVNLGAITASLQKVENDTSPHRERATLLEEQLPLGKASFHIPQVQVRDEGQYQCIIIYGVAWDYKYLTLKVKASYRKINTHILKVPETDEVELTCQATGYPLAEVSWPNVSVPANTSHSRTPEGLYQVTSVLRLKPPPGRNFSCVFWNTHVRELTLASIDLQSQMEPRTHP

B1: chimeric anti-PD-L1 antibody 116F3 (antibody, V domains shown)
VH: CQSVKESEGGLFKPTDTLTLTCTVSGIDLSSISIGWVRQAPGNGLEWIGTISDSGSAYYASWAKSRSTITRNTNENTVTLKMTSLTAADTASYFCAKEILYYGMDLWGPGTLVTVSS
VL: DVVMTQTPASVSGAVGGTVTIKCQASEDIESYLAWYQQKPGQPPKLLIYAASNLEPGVPSRFKGSRSGTEYTLTITDLECDDAATYHCQATYGSTSSSDYGNAFGGGTKVVVVR
B2: chimeric anti-PD-L1 antibody 113F1 (antibody, V domains shown)
VH: B1 VH with S33A, G35S, S52N, D53S, S54Y, A57T, K64Q, L106V
VL: DVVMTQTPASVEAAVGGTVTIKCQASQSISSYLAWYQQKPGQPPKLLIYAASNLESGVPSRFKGSGSGTEYTLTISDLECDDAATYYCQSTYGTTSTSDYGNAFGGGTKVVVVR
B3: chimeric anti-PD-L1 antibody 115E2 (antibody, V domains shown)
VH: B1 VH with T15M, S30G, I32V, S33A, G35S, N43K, S52G, D53S, E75L, L106R
VL: B2 VL with A14S, K22N, S56P, Y71F, D81A, S90A, T94S, T97S
B4: chimeric anti-PD-L1 antibody 110H8 (antibody, V domains shown)
VH: B1 VH with I32V, G35S, S52G, D53A, S65R, E75L
VL: B2 VL with S31N, P43R, S56P, S76T, Y87H, S90C, T94S, T97S
B5: chimeric anti-PD-L1 antibody 110B4 (antibody, V domains shown)
VH: B1 VH with T23K, G35S, T50V, S52N, D53S, S54Y, S56N, A57T, S92T
VL: DVVMTQTPASVEAAVGGTVTIKCQASQSISSYFSWYQQKPGQRPKLLIYDASNLESGVPSRFKGSRSGTEYTLTISDLEWDDAATYYCQCTYGSTSSSNYGNNFGGGTKVVVVR
B6: chimeric anti-PD-L1 antibody 111H2 (antibody, V domains shown)
VH: QEQLVESGGGLVQPGGTLKLSCKGSGFDLSSNAMCWVRQAPGKGLEWIGCIVYGNCYYASWVNGRFTISSDNAQSSVDLQLNSLTAADTATYFCARDPAGSSVYTGGFNIWGPGTLVTVSS
VL: AIDMTQTPSPVSAAVGDTVTINCQASENIYSFLAWYQQKPGHSPKPLIYFASKLASGVPSRFKGSGSGTQFTLTISDVQCDDAATYYCQQTVSYKNADTAFGGGTKVVVVR
notes: also called chimeric anti-PD-L1 111H2 antibody
B7: chimeric anti-PD-L1 antibody 115C1 (antibody, V domains shown)
VH: CQSVKESEGGLFKPTDTLTLTCTVSGFSLSSVAVSWVRQAPGKGLEWIGTISYTGNTYYASWAKSRSTITRNTNENTVTLKMPSLTVADTATYFCAKEILYYGMDFWGPGTLVTVSS
VL: B2 VL with V2I, A9S, E12S, K22N, A50G, E70D, Y71F, D81A, T94S

The binders below were run against PD-L1 ligand (analyte of the Octet affinity measurement) (UniProt Q9NZQ7 19-238, limits assumed) (assay: BLI (Octet RED 96), antibody captured on anti-human IgG sensor, PD-L1 in solution, 1:1 fit).
Sequence of PD-L1 ligand (analyte of the Octet affinity measurement) (Q9NZQ7 19-238 limits assumed): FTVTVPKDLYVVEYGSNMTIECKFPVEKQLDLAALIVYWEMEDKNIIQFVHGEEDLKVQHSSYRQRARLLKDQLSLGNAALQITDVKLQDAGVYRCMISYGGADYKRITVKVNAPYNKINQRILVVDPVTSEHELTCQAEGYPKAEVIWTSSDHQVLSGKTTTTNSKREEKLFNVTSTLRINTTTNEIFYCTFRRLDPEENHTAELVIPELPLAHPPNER
Experimental: Affinity Measurement: The affinity measurement was conducted with Octet RED 96 (ForteBio) instrument at 30 degree Celsius. Briefly, anti-human IgG capture sensor (AHC from ForteBio cat #18-5060) was equilibrated with assay buffer (1× dilution of 10× Kinetics Buffer (ForteBio, Cat #18-5032). Test antibody samples were diluted to 3 ug/mL and allowed to bind to the sensors for 5 min. The sensors were then washed in assay buffer for 3 minutes, and PD-L1 ligand diluted at different concentrations were allowed to bind to the mAb coated on the sensors for 5 minutes. Afterwards, dissociation was followed for 10 minutes in the assay buffer. The sensors could be regenerated by washing in glycine buffer and assay buffer 3 times. The data were fitted with 1:1 binding model using the ForteBio software.

Kd [nM] | koff [s⁻¹] | kon [M⁻¹ s⁻¹] | Binder
< 0.001 | < 1e-07 | 682000 | B1
0.115 | 3.78e-05 | 362000 | B2
0.1 | 4.99e-05 | 532000 | B3
< 0.001 | < 1e-07 | 755000 | B4
0.173 | 6.87e-05 | 404000 | B5
0.183 | 0.000197 | 1.07e+06 | B6
0.051 | 2.08e-05 | 455000 | B7

These binders were tested against T1, human PDL2 (assay: ELISA, coated human PDL2).

binding result | Binder
no binding | B4
no binding | B5
no binding | B6

The binders below were run against T2, human PD-L1-Fc (human, UniProt Q9NZQ7 19-238, limits assumed) (assay: competition ELISA: coated human PD-L1-Fc, antibody added first, then PD1-his, detected with anti-His-HRP).
T2 construct: Bought fusion protein; not shown: Fc part
T2 sequence (Q9NZQ7 19-238 limits assumed): as above

IC50 (read off the curve) [mg/L] | Binder
~0.2 | B1

Each binder was assayed against T1, human PDL2 (assay: ELISA on coated human PDL2 (printed: hu PDL2-Fc), purified chimeric antibody [panel hu PDL2-Fc ELISA]).
Experimental: PD-L1 binding ELISAs: B cell cloning supernatants were tested for binding to PD-L1 by ELISA. ELISA plates were coated with 100 uL antigen at 0.5 or 1 ug/mL in PBS (Life Technologies, cat. #14190-250) overnight at 4° C. or for 1 hour at 37° C. […] Plates were then blocked with PBS+10% goat serum for 1 hour. After washing with deionized water, samples were added in PBS/10% goat serum and incubated for 1 hour. […] Plates were then washed with deionized water and 100 uL TMB substrate (Thermo Scientific, cat. #PI134021) was added to each well. Development was stopped with 100 uL 1N H₂SO₄, and OD450 was measured using a microplate spectrophotometer.
Purified chimeric and humanized antibodies were tested for binding to PD-L1 by ELISA. Antigens tested include; human PD-L1-Fc, human PD-L1-his, murine PD-L1-his, and cynomolgus PD-L1-his (Sinobiological, cat. #90251-CO8H) and human PDL2 (Acrobiosystems, cat. #PD2-H5251). Protocols were the same as for testing B cell cloning supernatants except that the secondary antibodies were as follows; for human PD-L1-Fc the secondary was goat anti-human kappa-HRP (Novex, Life Technologies, cat. #A18853), for human PD-L1-his, murine PD-L1-his and cynomolgus PD-L1-his the secondary was goat anti-human IgG Fc-HRP (Jackson ImmunoResearch, cat. #109-005-098).

binding result | Binder
no binding (tested: 4 µg/mL) | B1
no binding (tested: 4 µg/mL) | B2
no binding (tested: 4 µg/mL) | B3
no binding (tested: 4 µg/mL) | B7

These binders were tested against human PD-L1 expressed on cells (human, UniProt Q9NZQ7 19-290) (assay: cell-based or functional assay).
Sequence of human PD-L1 expressed on cells (Q9NZQ7 19-290): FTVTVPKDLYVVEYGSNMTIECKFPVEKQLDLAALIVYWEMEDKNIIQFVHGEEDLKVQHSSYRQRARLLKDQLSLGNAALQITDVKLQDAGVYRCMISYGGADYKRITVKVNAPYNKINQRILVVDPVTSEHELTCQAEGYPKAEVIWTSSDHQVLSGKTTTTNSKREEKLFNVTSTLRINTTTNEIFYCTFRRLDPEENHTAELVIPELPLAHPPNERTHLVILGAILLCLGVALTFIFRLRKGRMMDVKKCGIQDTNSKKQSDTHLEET

EC50 of the rise of luciferase activity, PD1/PD-L1 blockade reporter assay (CHO-K1/TCRA/PD-L1 cells with PD1/NFAT Jurkat cells); column Chimeric of the table under the plot [mg/L] | Binder
0.0483 | B6
